The supplement of paper PMC7125110
± gives the standard error. This sample holds only a part of the variants without activity.

B1: glmS ribozyme (parent)
chain: AUAAAAGCGCCAGAACUACAGAAAUGUAGUUGACGAGGAGGAGGUUUAUCGAAUUUUCGGCGGAUGCCUCCAAA

Key:
Conditions in all cases: with glucosamine-6-phosphate
glucosamine-6-phosphate [1] = variants of: B1; assay: self-cleavage kobs at 160 uM GlcN6P; higher = faster cleavage; RNA array
Method in brief: (§1)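 Barcoded ribozyme variants on sequenced MiSeq chips were transcribed in situ by E. coli RNA polymerase and followed at 37 °C through a hybridised Cy3 probe. Glucosamine-6-phosphate at 40 μM to 10 mM in HEPES/KCl/Mg(OAc)2 buffer was flowed in, and tiles were imaged over ~14 h. Signals were normalised to baseline and to non-cleaving reference variants, and per-tile medians were fit to one- or two-exponential decays to give kobs. Weighted Michaelis–Menten fits across concentrations gave kcat and KM.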

glucosamine-6-phosphate [2] = variants of: B1; assay: self-cleavage kobs at 640 uM GlcN6P; higher = faster cleavage; RNA array
Method in brief: as §1

glucosamine-6-phosphate [3] = variants of: B1; assay: self-cleavage kobs at 2500 uM GlcN6P; higher = faster cleavage; RNA array
Method in brief: as §1

glucosamine-6-phosphate [4] = variants of: B1; assay: self-cleavage kobs at 10000 uM GlcN6P; higher = faster cleavage; RNA array
Method in brief: as §1

glucosamine-6-phosphate [5] = variants of: B1; assay: self-cleavage kobs at 40 uM GlcN6P; higher = faster cleavage; RNA array
Method in brief: as §1

| Variant | self-cleavage kobs at 160 uM GlcN6P (glucosamine-6-phosphate [1]) | self-cleavage kobs at 640 uM GlcN6P (glucosamine-6-phosphate [2]) | self-cleavage kobs at 2500 uM GlcN6P (glucosamine-6-phosphate [3]) | self-cleavage kobs at 10000 uM GlcN6P (glucosamine-6-phosphate [4]) | self-cleavage kobs at 40 uM GlcN6P (glucosamine-6-phosphate [5]) |
| --- | --- | --- | --- | --- | --- |
| A1C U30G | 0.000834 ± 0.00021 s⁻¹ | 0.00402 ± 0.0016 s⁻¹ | 0.00723 ± 0.0018 s⁻¹ | – | – |
| A6G C16G G38A | < 1e-05 s⁻¹ | < 1e-05 s⁻¹ | – | – | – |
| G7C G41C | < 1e-05 s⁻¹ | < 1e-05 s⁻¹ | – | < 1e-05 s⁻¹ | – |
| G60A G66A | < 1e-05 s⁻¹ | – | – | – | < 1e-05 s⁻¹ |
| G60A G66U | < 1e-05 s⁻¹ | < 1e-05 s⁻¹ | – | < 1e-05 s⁻¹ | < 1e-05 s⁻¹ |
| A6G C10U U57C | < 1e-05 s⁻¹ | – | – | – | – |
| G60U A64G | < 1e-05 s⁻¹ | < 1e-05 s⁻¹ | < 1e-05 s⁻¹ | < 1e-05 s⁻¹ | < 1e-05 s⁻¹ |
| G60A A64U | – | < 1e-05 s⁻¹ | < 1e-05 s⁻¹ | – | < 1e-05 s⁻¹ |
| G7C G13U A42G | < 1e-05 s⁻¹ | – | – | < 1e-05 s⁻¹ | – |
| U56G G62C | < 1e-05 s⁻¹ | – | < 1e-05 s⁻¹ | – | < 1e-05 s⁻¹ |
| G59C | < 1e-05 s⁻¹ | < 1e-05 s⁻¹ | – | < 1e-05 s⁻¹ | < 1e-05 s⁻¹ |
| G7C C50A | < 1e-05 s⁻¹ | < 1e-05 s⁻¹ | – | < 1e-05 s⁻¹ | – |
| G7C U56A | < 1e-05 s⁻¹ | < 1e-05 s⁻¹ | < 1e-05 s⁻¹ | < 1e-05 s⁻¹ | – |
| A6G U57A G60A C71G | < 1e-05 s⁻¹ | < 1e-05 s⁻¹ | < 1e-05 s⁻¹ | – | – |
| G7A G43C C71U | < 1e-05 s⁻¹ | < 1e-05 s⁻¹ | – | – | – |
| U56A G59C | < 1e-05 s⁻¹ | < 1e-05 s⁻¹ | < 1e-05 s⁻¹ | < 1e-05 s⁻¹ | < 1e-05 s⁻¹ |
| A6G U30G G59U | < 1e-05 s⁻¹ | < 1e-05 s⁻¹ | < 1e-05 s⁻¹ | – | – |
| C58U G59C | – | – | – | – | < 1e-05 s⁻¹ |
| C58U G60A | – | < 1e-05 s⁻¹ | < 1e-05 s⁻¹ | < 1e-05 s⁻¹ | < 1e-05 s⁻¹ |
| A6U A42U C61G | < 1e-05 s⁻¹ | – | – | – | – |
| A6G A15C U45A G59A | < 1e-05 s⁻¹ | < 1e-05 s⁻¹ | < 1e-05 s⁻¹ | – | – |
| A6C A12G C68G C70G | < 1e-05 s⁻¹ | < 1e-05 s⁻¹ | < 1e-05 s⁻¹ | – | – |

| Variant | self-cleavage kobs at 160 uM GlcN6P (glucosamine-6-phosphate [1]) | self-cleavage kobs at 640 uM GlcN6P (glucosamine-6-phosphate [2]) | self-cleavage kobs at 2500 uM GlcN6P (glucosamine-6-phosphate [3]) | self-cleavage kobs at 10000 uM GlcN6P (glucosamine-6-phosphate [4]) | self-cleavage kobs at 40 uM GlcN6P (glucosamine-6-phosphate [5]) |
| --- | --- | --- | --- | --- | --- |
| G60C U69G | < 1e-05 s⁻¹ | – | – | < 1e-05 s⁻¹ | < 1e-05 s⁻¹ |
| G60C U69C | – | – | – | < 1e-05 s⁻¹ | < 1e-05 s⁻¹ |
| C58A A64U | – | – | < 1e-05 s⁻¹ | < 1e-05 s⁻¹ | < 1e-05 s⁻¹ |
| A6C G32U A64G C67U | < 1e-05 s⁻¹ | < 1e-05 s⁻¹ | < 1e-05 s⁻¹ | – | – |
| G7C C34U | < 1e-05 s⁻¹ | < 1e-05 s⁻¹ | < 1e-05 s⁻¹ | < 1e-05 s⁻¹ | – |
| G7C G37U | < 1e-05 s⁻¹ | < 1e-05 s⁻¹ | < 1e-05 s⁻¹ | – | – |
| G7A U65C | < 1e-05 s⁻¹ | < 1e-05 s⁻¹ | < 1e-05 s⁻¹ | < 1e-05 s⁻¹ | – |
| U55A U56C | 0.000191 ± 3e-05 s⁻¹ | 0.000919 ± 0.00017 s⁻¹ | 0.00258 ± 0.00063 s⁻¹ | 0.00781 ± 0.0012 s⁻¹ | 0.00013 ± 2.5e-05 s⁻¹ |
| U55A U56G | 0.000454 ± 8.8e-05 s⁻¹ | 0.00368 ± 0.00046 s⁻¹ | 0.00771 ± 0.0013 s⁻¹ | 0.0097 ± 0.0019 s⁻¹ | 0.000292 ± 4.8e-05 s⁻¹ |
| C61U A64G C70G | – | – | – | – | < 1e-05 s⁻¹ |
| A6U C10G A36C | < 1e-05 s⁻¹ | – | < 1e-05 s⁻¹ | – | – |
| G62U C67G | – | < 1e-05 s⁻¹ | – | < 1e-05 s⁻¹ | < 1e-05 s⁻¹ |
| G62U G63A | < 1e-05 s⁻¹ | < 1e-05 s⁻¹ | < 1e-05 s⁻¹ | < 1e-05 s⁻¹ | < 1e-05 s⁻¹ |
| G60C G62C | < 1e-05 s⁻¹ | – | – | – | < 1e-05 s⁻¹ |
| A6G A14G C16U G32U G35C G41C C50A C71G | < 1e-05 s⁻¹ | – | < 1e-05 s⁻¹ | – | – |
| A6G G7C C10U G35U G40U G60A C70G | < 1e-05 s⁻¹ | < 1e-05 s⁻¹ | < 1e-05 s⁻¹ | – | – |
| A1U U2A G63A | < 1e-05 s⁻¹ | – | – | – | – |
| A6U G38U G43U | < 1e-05 s⁻¹ | – | < 1e-05 s⁻¹ | – | – |
| U55G C68U | 0.00035 ± 8.1e-05 s⁻¹ | 0.00158 ± 0.00035 s⁻¹ | 0.000382 ± 8.7e-05 s⁻¹ | 0.00508 ± 0.00094 s⁻¹ | 0.000294 ± 3.6e-05 s⁻¹ |
| G7A U54G | < 1e-05 s⁻¹ | – | – | 4.41e-05 ± 1.5e-05 s⁻¹ | – |
| U65C C70A | < 1e-05 s⁻¹ | – | – | – | < 1e-05 s⁻¹ |
| G7C C8G A52G | < 1e-05 s⁻¹ | < 1e-05 s⁻¹ | < 1e-05 s⁻¹ | – | – |
